Experimental data as given in patent publication US20210269548A1 (Kyowa Kirin, published 2021).

T1: human CSPG5 (human, UniProt O95196 31-566)
T1 construct: Full-length gene expressed on cell membrane (Expi293F, L929); also called human CSPG5/Expi293F cells; human CSPG5/L929#09
T1 sequence: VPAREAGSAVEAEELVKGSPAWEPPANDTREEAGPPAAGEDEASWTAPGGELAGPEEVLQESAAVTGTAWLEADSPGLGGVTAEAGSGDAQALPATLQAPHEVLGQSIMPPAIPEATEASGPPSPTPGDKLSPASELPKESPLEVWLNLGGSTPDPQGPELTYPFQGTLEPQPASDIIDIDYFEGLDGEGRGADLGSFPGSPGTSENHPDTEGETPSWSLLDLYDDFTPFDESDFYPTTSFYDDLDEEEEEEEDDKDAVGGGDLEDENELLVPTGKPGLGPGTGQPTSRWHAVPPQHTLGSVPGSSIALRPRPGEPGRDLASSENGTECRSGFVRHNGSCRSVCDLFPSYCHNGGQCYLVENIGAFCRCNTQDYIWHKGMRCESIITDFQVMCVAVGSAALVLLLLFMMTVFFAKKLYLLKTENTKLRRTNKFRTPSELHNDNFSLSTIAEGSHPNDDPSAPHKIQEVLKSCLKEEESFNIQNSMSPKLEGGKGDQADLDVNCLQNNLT

T2: monkey CSPG5 (monkey (rhesus monkey), UniProt O95196 31-566 (human entry))
T2 construct: Full-length gene expressed on Expi293F cells; also called monkey CSPG5/Expi293F cells; rhesus monkey CSPG5
T2 chain: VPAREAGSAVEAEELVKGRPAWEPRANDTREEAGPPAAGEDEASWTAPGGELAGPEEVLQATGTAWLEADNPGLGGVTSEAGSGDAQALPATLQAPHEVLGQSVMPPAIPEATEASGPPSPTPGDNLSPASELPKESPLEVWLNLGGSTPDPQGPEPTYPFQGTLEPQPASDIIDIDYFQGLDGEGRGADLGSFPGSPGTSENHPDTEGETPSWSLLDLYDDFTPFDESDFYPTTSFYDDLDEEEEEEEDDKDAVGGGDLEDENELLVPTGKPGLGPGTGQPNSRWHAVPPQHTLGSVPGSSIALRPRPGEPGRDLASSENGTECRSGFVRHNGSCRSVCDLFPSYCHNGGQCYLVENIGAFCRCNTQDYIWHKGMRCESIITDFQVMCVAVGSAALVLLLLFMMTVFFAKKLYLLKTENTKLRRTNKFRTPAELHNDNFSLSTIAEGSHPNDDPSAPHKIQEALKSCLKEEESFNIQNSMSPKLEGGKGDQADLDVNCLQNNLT

T3: mouse CSPG5 (mouse, UniProt Q71M36 31-566)
T3 construct: Full-length gene expressed on Expi293F cells; also called mouse CSPG5/Expi293F cells
T3 sequence: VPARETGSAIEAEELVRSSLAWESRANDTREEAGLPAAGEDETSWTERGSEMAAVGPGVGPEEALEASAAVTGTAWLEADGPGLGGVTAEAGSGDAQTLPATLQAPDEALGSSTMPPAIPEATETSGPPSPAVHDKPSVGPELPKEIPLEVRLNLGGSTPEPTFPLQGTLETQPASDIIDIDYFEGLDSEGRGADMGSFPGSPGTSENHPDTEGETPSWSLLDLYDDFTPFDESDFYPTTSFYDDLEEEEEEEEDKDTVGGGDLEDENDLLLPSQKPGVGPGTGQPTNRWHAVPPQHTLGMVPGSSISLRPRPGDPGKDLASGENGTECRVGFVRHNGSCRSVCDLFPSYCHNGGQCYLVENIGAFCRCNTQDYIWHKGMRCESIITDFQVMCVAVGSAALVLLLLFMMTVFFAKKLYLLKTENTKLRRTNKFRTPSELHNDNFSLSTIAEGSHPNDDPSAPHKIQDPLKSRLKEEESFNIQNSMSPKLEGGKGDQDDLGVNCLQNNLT

B1: pCANTAB_CSPG5168 phage clone (scFv, V domains shown)
VH: EVQLVETGGALVQPGGSLRLSCAGSGFIFSKYEMTWVRQAPGKGLEWVSTIGSLGLKTFYTDSVKGRFTTSRDNSRDTLFLQMDNLRVEDTAIYFCVKGGIRRADYWGKGTLVTVSS
VL: EIVMTQSPATLSLSPGERATLSCRASQSVSSYLAWYQQKPGQAPRLLIYDASNRATGIPARFSGSGSGTDFTLTISSLEPEDFAVYYCQQRSNWPLTFGGGTKVEIK
notes: also called CSPG5168 scFv on phage
B2: pCANTAB_CSPG5219 phage clone (scFv, V domains shown)
VH: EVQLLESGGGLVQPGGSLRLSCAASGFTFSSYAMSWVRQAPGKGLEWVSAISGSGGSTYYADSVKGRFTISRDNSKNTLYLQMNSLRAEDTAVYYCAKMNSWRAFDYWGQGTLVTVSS
VL: EIVLTQSPGTLSLSPGERATLSCRASQSVSSSYLAWYQQKPGQAPRLLIYGASSRATGIPDRFSGSGSGTDFTLTISRLEPEDFAVYYCQQLRRKGSTFGQGSKVEIK
notes: also called CSPG5219 scFv on phage
B3: pCANTAB_CSPG5115 phage clone (scFv, V domains shown)
VH: EVQLVQSGAEVKKPGASLKVSCKASGYSFTDYIIHWVRQAPGQSLEWMGWINGGSGVPKYSDKFQGRVTITRDTSANTAYMEIRSLGSEDTAVYYCARGGVCSGDKCYYYGMDVWGQGTTVTVSS
VL: QSVLTQPPSVSVSPGQTASITCSGDKLGDKYSWWYQQKPGQSPLLVIHQDNKRPSGIPERFSGSNSGNTATLTIVGTQAMDEADYYCQAWDRGVVFGGGTKLTVL
notes: also called CSPG5115 scFv on phage
B4: CSPG5115 scFv-hG4PE(R409K) (Fc fusion)
VH: EVQLVQSGAEVKKPGASLKVSCKASGYSFTDYIIHWVRQAPGQSLEWMGWINGGSGVPKYSDKFQGRVTITRDTSANTAYMEIRSLGSEDTAVYYCARGGVCSGDKCYYYGMDVWGQGTTVTVSS
VL: QSVLTQPPSVSVSPGQTASITCSGDKLGDKYSWWYQQKPGQSPLLVIHQDNKRPSGIPERFSGSNSGNTATLTIVGTQAMDEADYYCQAWDRGVVFGGGTKLTVL
notes: also called anti-CSPG5 scFv-Fc antibody
B5: pCANTAB_CSPG5206 phage clone (scFv, V domains shown)
VH: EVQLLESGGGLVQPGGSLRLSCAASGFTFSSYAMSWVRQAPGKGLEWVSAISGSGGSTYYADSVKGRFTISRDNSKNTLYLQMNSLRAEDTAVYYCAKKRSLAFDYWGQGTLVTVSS
VL: QSALTQPASVSGSPGQSITISCTGTSTDVNGYNYVSWYQQYAGKAPKLIIFDVSKRPSGVSNRFSGSKSGDTASLTISGLQAEDEADYHCSSYNRKRPPVLFGGGTKLTVL
notes: also called CSPG5206 scFv on phage
B6: pCANTAB_CSPG5207 phage clone (scFv, V domains shown)
VH: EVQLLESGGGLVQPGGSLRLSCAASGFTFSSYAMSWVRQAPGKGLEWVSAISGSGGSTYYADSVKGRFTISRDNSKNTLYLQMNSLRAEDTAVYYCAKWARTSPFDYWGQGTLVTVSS
VL: QSALTQPASVSGSPGQSITISCTGTSTDVNGYNYVSWYQQYAGKAPKLIIFDVSKRPSGVSNRFSGSKSGDTASLTISGLQAEDEADYHCSSYTPSRARVLFGGGTKLTVL
notes: also called CSPG5207 scFv on phage
B7: pCANTAB_CSPG5201 phage clone (scFv, V domains shown)
VH: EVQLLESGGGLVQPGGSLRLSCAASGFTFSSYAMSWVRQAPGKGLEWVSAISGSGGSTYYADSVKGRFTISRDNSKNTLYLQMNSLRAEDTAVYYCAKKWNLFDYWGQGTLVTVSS
VL: QSALTQPASVSGSPGQSITISCTGTSTDVNGYNYVSWYQQYAGKAPKLIIFDVSKRPSGVSNRFSGSKSGDTASLTISGLQAEDEADYHCSSYRRLRLPVLFGGGTKLTVL
notes: also called CSPG5201 scFv on phage
B8: pCANTAB_CSPG5234 phage clone (scFv, V domains shown)
VH: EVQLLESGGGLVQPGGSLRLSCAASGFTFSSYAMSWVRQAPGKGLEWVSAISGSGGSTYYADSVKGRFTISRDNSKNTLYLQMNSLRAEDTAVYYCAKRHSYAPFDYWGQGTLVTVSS
VL: QSALTQPASVSGSPGQSITISCTGTSTDVNGYNYVSWYQQYAGKAPKLIIFDVSKRPSGVSNRFSGSKSGDTASLTISGLQAEDEADYHCSSYRPKARSVLFGGGTKLTVL
notes: also called CSPG5234 scFv on phage
B9: pCANTAB_CSPG5214 phage clone (scFv, V domains shown)
VH: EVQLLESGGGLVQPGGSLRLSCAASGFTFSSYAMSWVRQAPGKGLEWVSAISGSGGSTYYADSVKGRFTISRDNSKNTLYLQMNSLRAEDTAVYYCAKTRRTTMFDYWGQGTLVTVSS
VL: QSALTQPASVSGSPGQSITISCTGTSTDVNGYNYVSWYQQYAGKAPKLIIFDVSKRPSGVSNRFSGSKSGDTASLTISGLQAEDEADYHCSSYNPHHSGVLFGGGTKLTVL
notes: also called CSPG5214 scFv on phage
B10: pCANTAB_CSPG5230 phage clone (scFv, V domains shown)
VH: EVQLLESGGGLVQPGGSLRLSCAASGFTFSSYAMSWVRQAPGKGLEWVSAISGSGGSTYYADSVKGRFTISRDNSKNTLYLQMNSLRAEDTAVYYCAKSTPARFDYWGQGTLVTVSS
VL: QSALTQPASVSGSPGQSITISCTGTSTDVNGYNYVSWYQQYAGKAPKLIIFDVSKRPSGVSNRFSGSKSGDTASLTISGLQAEDEADYHCSSYHTRPATVLFGGGTKLTVL
notes: also called CSPG5230 scFv on phage
B11: CSPG5120 scFv-hG4PE(R409K) (Fc fusion)
VH: EVQLVQSGGGLVQPGGSLRLSCAASGFTFSNYWMTWVRQAPGEGPEWVANINQDGSQKYYVDSVKGRFTISRDNAKNSLNLQMNNLRAEDTALYYCAKSNAMDVWGQGTLVTVSS
VL: DIVMTQSPLSLPVTPGEPASISCRSSESLLHSNGYNYLNWYLQKPGQSPQLLIYLGSHRASGVPDRLSGSGSDTDFTLKISRVEAEDVGIYYCMQGRQTPITFGGGTKLEIK
notes: as for B4
B12: pCANTAB_CSPG5120 phage clone (scFv, V domains shown)
VH: EVQLVQSGGGLVQPGGSLRLSCAASGFTFSNYWMTWVRQAPGEGPEWVANINQDGSQKYYVDSVKGRFTISRDNAKNSLNLQMNNLRAEDTALYYCAKSNAMDVWGQGTLVTVSS
VL: DIVMTQSPLSLPVTPGEPASISCRSSESLLHSNGYNYLNWYLQKPGQSPQLLIYLGSHRASGVPDRLSGSGSDTDFTLKISRVEAEDVGIYYCMQGRQTPITFGGGTKLEIK
notes: also called CSPG5120 scFv on phage

Assays:
mouse CSPG5-FLAG_Fc = mouse CSPG5-FLAG_Fc (mouse); assay: phage ELISA, immobilised antigen, anti-M13-HRP
Procedure: (§1) In the ELISA, human CSPG5-FLAG_Fc and mouse CSPG5-FLAG_Fc were immobilized on MAXISORP (manufactured by NUNC, Inc.), followed by blocking using SuperBlock Blocking Buffer (manufactured by Thermo Fisher Scientific, Inc.). As a negative control, a plate on which Fc was immobilized was also prepared.
(§2) To each well, each phage clone was added and allowed to react at room temperature for 30 minutes, and thereafter, each well was washed with PBS-T. Subsequently, a solution obtained by diluting an anti-M13 antibody (manufactured by GE Healthcare, Inc.) labeled with horseradish peroxidase with PBS-T comprising 10% Block Ace (manufactured by Dainippon Pharmaceutical Co., Ltd.) was added to each well and incubated at room temperature for 30 minutes. After the microplate was washed 3 times with PBS-T, a 3,3′,5,5′-tetramethylbenzidine (TMB) chromogenic substrate solution (manufactured by DAKO, Inc.) was added thereto, followed by incubation at room temperature. The coloring reaction was stopped by adding a 0.5 mol/L sulfuric acid to each well, and an absorbance at a wavelength of 450 nm (reference wavelength: 570 nm) was measured using a microplate reader. […]

human CSPG5-FLAG_Fc = human CSPG5-FLAG_Fc (human); assay: phage ELISA, immobilised antigen, anti-M13-HRP
Procedure: as §1, §2

human CSPG5 = molecular target: T1, human CSPG5; assay: FACS, 10 µg/mL antibody, human CSPG5/Expi293F vs Expi293F
Procedure: (§3) Expi293F cells, human CSPG5/Expi293F cells, mouse CSPG5/Expi293F cells, and monkey CSPG5/Expi293F cells were separately suspended in Staining Buffer (SB) of PBS comprising 0.1% NaN₃ and 1% FBS and dispensed in a round-bottom 96-well plate (manufactured by Becton, Dickinson and Company). After centrifugation (2000 rpm, 4° C., 2 minutes), the supernatant was removed, and to the resulting pellet, 10 μg/mL of each antibody obtained in Example 2 was added to suspend the pellet, and the resulting suspension was left to stand for 30 minutes at ice temperature. After further centrifugation (2000 rpm, 4° C., 2 minutes), the supernatant was removed, and the resulting pellet was washed with SB, and thereafter, 1 μg/mL of an RPE fluorescently labeled goat anti-human antibody (manufactured by Southern Biotech, Inc.) was added thereto, and the resultant was incubated for 30 minutes at ice temperature. After washing with SB, the cells were suspended in SB, and the fluorescence intensity of each cell was measured using a flow cytometer FACS CANTO II (manufactured by Becton, Dickinson and Company). Note that as a negative control, 10 μg/mL of the anti-AVM antibody was used.
(§4) The detection results were analyzed, and a mean fluorescence intensity (MFI) was calculated using a geometric mean. Further, with respect to the MFI when the concentration of each antibody was 10 μg/mL, the ratio of the MFI (mean fluorescence intensity ratio) between the human CSPG5/Expi293F cells and the Expi293F cells (parent cell line) was calculated. Also for the monkey CSPG5/Expi293F cells and the mouse CSPG5/Expi293F cells, the mean fluorescence intensity ratio relative to the Expi293F cells (parent cell line) was calculated by the same procedure, and the results are shown in Table 3.

monkey CSPG5 = molecular target: T2, monkey CSPG5; assay: FACS, 10 µg/mL antibody, monkey CSPG5/Expi293F vs Expi293F
Procedure: as §3, §4

mouse CSPG5 = molecular target: T3, mouse CSPG5; assay: FACS, 10 µg/mL antibody, mouse CSPG5/Expi293F vs Expi293F
Procedure: as §3, §4

mouse CSPG5-GST = mouse CSPG5-GST (mouse); assay: SPR Biacore T-100, antibody captured, mouse CSPG5-GST analyte
Procedure: The affinity of the anti-CSPG5 antibodies, the CSPG5202 IgG4PE(R409K), and the AVM IgG4PE(R409K) CSPG5202 dscFv produced in Example 2 for human CSPG5 and mouse CSPG5 was measured using Biacore T-100 (GE Healthcare).
Each of the antibodies was immobilized on a […] sensor chip using a Human antibody Capture kit, and the binding ability was evaluated using human CSPG5-GST and mouse CSPG5-GST produced in Example 4 as analytes. The obtained sensorgram was analyzed with BIA evaluation software, and the dissociation constant (KD value) was calculated.

Binder | binding result (mouse CSPG5-FLAG_Fc) | binding result (human CSPG5-FLAG_Fc) | Mean fluorescence intensity ratio (human CSPG5) | Mean fluorescence intensity ratio (monkey CSPG5) | Mean fluorescence intensity ratio (mouse CSPG5) | Kd (mouse CSPG5-GST)
B1 | binds | binds | – | – | – | –
B2 | binds | binds | – | – | – | –
B3 | binds | binds | – | – | – | –
B4 | – | – | 3.24 ratio to parent cell line | 3.56 ratio to parent cell line | 3.44 ratio to parent cell line | ≤ 10 nM
B5 | binds | binds | – | – | – | –
B6 | binds | binds | – | – | – | –
B7 | binds | binds | – | – | – | –
B8 | binds | binds | – | – | – | –
B9 | binds | binds | – | – | – | –
B10 | binds | binds | – | – | – | –
B11 | – | – | 18.5 ratio to parent cell line | 8.01 ratio to parent cell line | 20.4 ratio to parent cell line | ≤ 10 nM
B12 | binds | binds | – | – | – | –
